One substance from article PMC8488679 can be followed below.

Test [1] concerns the target Apoptosis-inducing factor 1 (AIFM1) (bovine (endogenous in bovine heart mitochondria)). Kind of test: complexome profiling.
Test [2] addresses cytochrome c oxidase (COX), monomeric (bovine (endogenous in bovine heart mitochondria)) (UniProt P68530). Kind of test: complexome profiling.

The stoichiometry N is a count of units in the complex or per binding partner.

Sequence of UniProt P68530 (P68530 whole entry, looked up): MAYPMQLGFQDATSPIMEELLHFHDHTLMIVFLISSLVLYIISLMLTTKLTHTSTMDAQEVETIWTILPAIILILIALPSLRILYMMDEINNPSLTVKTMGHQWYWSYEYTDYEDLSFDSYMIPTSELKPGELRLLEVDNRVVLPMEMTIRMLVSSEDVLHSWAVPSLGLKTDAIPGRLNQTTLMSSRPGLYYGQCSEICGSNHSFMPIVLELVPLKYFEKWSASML

In test [1], “Apoptosis-inducing factor 1 (AIFM1) (natural protein)” yielded a stoichiometry N of 2. Also, in test [2], the percent of monomeric COX engaged in the complex is 10%.
